# T1: CEACAM5 on transfected HeLa cells (human, UniProt P06731 35-685)
# T1 construct: whole, on cells; also called HeLa-CEACAM5; HeLa C5
# T1 sequence (looked up): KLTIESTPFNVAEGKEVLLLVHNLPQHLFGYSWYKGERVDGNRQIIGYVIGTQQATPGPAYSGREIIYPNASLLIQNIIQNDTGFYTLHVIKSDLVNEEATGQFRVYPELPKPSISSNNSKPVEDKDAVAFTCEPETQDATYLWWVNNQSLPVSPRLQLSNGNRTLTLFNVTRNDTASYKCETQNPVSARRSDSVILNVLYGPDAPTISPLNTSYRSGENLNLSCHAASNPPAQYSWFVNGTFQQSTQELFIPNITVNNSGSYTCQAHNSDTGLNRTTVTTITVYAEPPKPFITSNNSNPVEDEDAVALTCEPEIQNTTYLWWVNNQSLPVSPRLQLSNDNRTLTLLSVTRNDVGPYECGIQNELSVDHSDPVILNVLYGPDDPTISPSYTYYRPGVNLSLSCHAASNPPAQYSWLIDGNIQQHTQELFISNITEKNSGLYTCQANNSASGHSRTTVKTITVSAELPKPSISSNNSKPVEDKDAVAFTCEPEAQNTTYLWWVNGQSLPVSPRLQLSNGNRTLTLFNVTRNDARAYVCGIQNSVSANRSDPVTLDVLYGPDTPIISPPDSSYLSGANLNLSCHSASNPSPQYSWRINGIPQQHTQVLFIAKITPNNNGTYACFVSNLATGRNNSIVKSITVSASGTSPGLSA
# T2: CEACAM6 on transfected HeLa cells (human, UniProt P40199 35-320)
# T2 construct: whole, on cells; also called HeLa-CEACAM6; HeLa C6
# T2 sequence (looked up): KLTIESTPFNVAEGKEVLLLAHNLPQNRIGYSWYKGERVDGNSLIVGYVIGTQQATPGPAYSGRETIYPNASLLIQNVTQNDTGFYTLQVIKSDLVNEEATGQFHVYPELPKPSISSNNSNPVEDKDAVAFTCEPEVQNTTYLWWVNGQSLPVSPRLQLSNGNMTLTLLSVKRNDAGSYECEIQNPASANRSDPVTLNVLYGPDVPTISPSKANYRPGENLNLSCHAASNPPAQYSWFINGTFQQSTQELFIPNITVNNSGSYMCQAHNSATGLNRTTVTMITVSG
# T3: CEACAM1 on transfected HeLa cells (human, UniProt P13688 35-526)
# T3 construct: also called HeLa-CEACAM1; HeLa C1
# T3 sequence: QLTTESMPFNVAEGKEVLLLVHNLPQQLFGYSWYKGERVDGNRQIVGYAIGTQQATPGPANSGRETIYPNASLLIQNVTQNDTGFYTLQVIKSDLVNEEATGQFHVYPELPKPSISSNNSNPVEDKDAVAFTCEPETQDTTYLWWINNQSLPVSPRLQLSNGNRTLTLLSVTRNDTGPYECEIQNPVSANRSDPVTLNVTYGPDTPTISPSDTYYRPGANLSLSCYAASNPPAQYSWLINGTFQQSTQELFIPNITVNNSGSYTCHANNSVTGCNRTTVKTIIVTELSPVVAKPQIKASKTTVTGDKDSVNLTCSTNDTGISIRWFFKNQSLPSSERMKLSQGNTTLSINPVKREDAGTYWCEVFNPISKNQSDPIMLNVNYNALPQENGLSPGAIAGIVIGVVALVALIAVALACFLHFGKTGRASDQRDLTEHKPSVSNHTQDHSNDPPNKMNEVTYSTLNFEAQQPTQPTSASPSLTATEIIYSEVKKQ
# T4: His-tagged CEACAM1 (human, UniProt P13688 35-428)
# T4 construct: 45 kDa SPR analyte; also called CEACAM1-HIS; CEACAM1 analyte
# T4 sequence: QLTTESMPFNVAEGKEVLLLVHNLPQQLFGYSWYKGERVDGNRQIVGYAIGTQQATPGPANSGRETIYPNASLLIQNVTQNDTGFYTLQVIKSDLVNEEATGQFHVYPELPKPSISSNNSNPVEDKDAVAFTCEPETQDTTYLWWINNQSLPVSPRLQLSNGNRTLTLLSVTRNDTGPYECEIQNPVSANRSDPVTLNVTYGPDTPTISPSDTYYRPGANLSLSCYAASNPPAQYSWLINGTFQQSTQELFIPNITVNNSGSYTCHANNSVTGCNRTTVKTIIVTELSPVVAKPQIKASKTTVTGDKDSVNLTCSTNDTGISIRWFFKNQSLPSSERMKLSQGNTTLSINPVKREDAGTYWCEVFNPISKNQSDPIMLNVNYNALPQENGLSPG
# T5: CEACAM3 on transfected HeLa cells (human, UniProt P40198 35-252)
# T5 construct: whole, on cells; also called HeLa-CEACAM3; HeLa C3
# T5 sequence (looked up): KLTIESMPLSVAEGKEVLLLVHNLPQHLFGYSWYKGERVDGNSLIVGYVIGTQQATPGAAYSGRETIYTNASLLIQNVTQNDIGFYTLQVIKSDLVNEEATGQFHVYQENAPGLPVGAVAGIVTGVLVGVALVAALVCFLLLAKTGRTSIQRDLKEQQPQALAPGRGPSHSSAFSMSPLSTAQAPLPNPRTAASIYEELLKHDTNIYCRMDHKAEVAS
# T6: GST-CEACAM1 (human, UniProt P13688 35-141, limits assumed)
# T6 construct: also called human CEACAM1-GST protein
# T6 sequence: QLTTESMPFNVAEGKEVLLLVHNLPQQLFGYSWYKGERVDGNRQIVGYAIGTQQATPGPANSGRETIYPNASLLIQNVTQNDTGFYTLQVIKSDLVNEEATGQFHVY
# What was measured:
# [1] = target: T1, CEACAM5 on transfected HeLa cells; assay: flow cytometry, transfected HeLa
# [2] = target: T2, CEACAM6 on transfected HeLa cells; assay: flow cytometry, transfected HeLa
# [3] = target: T3, CEACAM1 on transfected HeLa cells; assay: flow cytometry, transfected HeLa
# [4] = target: T4, His-tagged CEACAM1; assay: SPR single-cycle, supernatant IgG captured
# Protocol: In order to assess the binding of the humanized, affinity matured reformatted lead IgGs, single-cycle kinetics analysis was performed on crude supernatants using a Biacore T200 running Biacore T200 Control Software V2.0.1 and Biacore T200 Evaluation Software V3.0. Antibodies were diluted in HBS-P+ to a final concentration of 0.5 μg/ml. At the start of each cycle, antibodies were loaded onto Fc2, Fc3 and Fc4 of the Protein A chip. IgGs were captured at a flow rate of 10 μl/min to give an immobilisation level (RL) of ˜100 RU (a level calculated to obtain a Rₘₐₓ of ˜50-150 RU once the analyte is bound). The surface was then allowed to stabilize. Single-cycle kinetics data was obtained with CEACAM1 as the analyte at a flow rate of 80 μl/min to minimize any potential mass transfer effects. Multiple repeats with the parent (VH1/Vκ8 S29A) antibody were performed to check the stability of the surface and analyte over the kinetic cycles. The signal from the reference channel Fc1 (no antibody) was subtracted from that of Fc2, Fc3 and Fc4 to correct for differences in non-specific binding to the reference surface. A three point, two-fold dilution range from 70 nM to 280 nM CEACAM1 without regeneration between each concentration was used. The signal from each antibody blank run (no CEACAM1) was subtracted to correct for differences in surface stability. The association phase for the three injections of increasing concentrations of CEACAM1 was monitored for 80 seconds each time and a single dissociation phase was measured for 150 seconds following the last injection of CEACAM1. Regeneration of the Protein A surface was conducted using two injections of 10 mM glycine-HCL pH 1.5 followed by a stabilization period of 250 seconds.
# [5] = target: T4, His-tagged CEACAM1; assay: SPR single-cycle, purified IgG captured
# Method in brief: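 Surface plasmon resonance single-cycle kinetics on a Biacore T200 at 25° C in HBS-P+ (pH 7.4). Purified IgG was captured on a Series S Protein A chip and His-tagged CEACAM1 was the analyte. Reference-channel and blank-run signals were subtracted. Kon, koff and Kd were fitted, and relative KD was calculated against the parent antibody assayed in the same experiment.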
# [6] = target: T5, CEACAM3 on transfected HeLa cells; assay: flow cytometry, HeLa-CEACAM3 transfectants, % staining, stacked bars
# Excerpt: FIG. 11 illustrates the binding selectivity of different affinity-matured CEACAM1 antibodies. […] HELA cells were transfected with vector alone (HeLa-Neo) or vectors expressing CEACAM1, CEACAM3, CEACAM5, or CEACAM6, respectively, and stained with the indicated antibodies. […] MOPC=mouse IgG1 control antibody. Mouse antibodies as positive control for transfected CEACAM isoforms: Col-1=CEACAM3 and CEACAM5 antibody. 9A6=CEACAM6 antibody. T84.1=CEACAM cross-reactive antibody and T84.66=CEACAM5 antibody. Only 2nd FITC=No primary antibody, only secondary FITC conjugated antibody. […] Data for affinity-matured antibodies 9B3_8H3/Vκ8 S29A, 8H3_9B3/CP08_E05, and 8H3_9C2/CPO08_F05, as well as data for CEACAM8 antibody 80H3 were omitted from the FIG. due to an unusually high background signal.
# [7] = target: T4, His-tagged CEACAM1; assay: SPR single-cycle, supernatant IgG captured; remark: listed apart in the source
# Method in brief: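 On a Biacore T200 run at 25° C in HBS-P+ (pH 7.4), IgG captured on Protein A was probed with His-tagged CEACAM1 by single-cycle surface plasmon resonance. Fitted Kon, koff and Kd gave a relative KD referenced to the parent antibody from the same experiment. The IgG came from filtered, ELISA-quantified supernatants of HEK EBNA cells transiently transfected with PEI and harvested after 5-7 days.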
# [8] = target: T4, His-tagged CEACAM1; assay: SPR single-cycle, IgG captured
# Method in brief: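 Biacore T200 single-cycle kinetics at 25° C in HBS-P+ (pH 7.4): antibodies (purified or HEK EBNA supernatant, 1 μg/ml) captured on Protein A to ~75 RU, His-tagged CEACAM1 analyte at 3.125–50 nM (5-point 2-fold) at 50 μl/min without regeneration. Reference channel Fc1 subtracted.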
# [9] = target: T6, GST-CEACAM1; assay: competition ELISA vs parental murine antibody
# Protocol: The binding of the purified antibodies to human CEACAM1 was assessed in a competition ELISA assay. Nunc Immuno MaxiSorp 96 well flat bottom microtitre plates were pre-coated with 1 μg/ml of GST-CEACAM1 in 1×PBS, overnight at 4° C. The following day the plates were blocked for 1 hour at room temperature (“RT”) with 2% BSA/PBS before washing 3× with PBST pH 7.4. A 3-fold dilution series of the chimeric antibody chimeric antibody VH0/Vκ0, an irrelevant IgG4 antibody, and the humanized CEACAM1 antibodies from 100 μg/ml to 0.07 or 0.002 μg/ml were pre-mixed with a constant concentration of parental murine antibody (0.45 μg/ml final concentration), added to the plate and incubated for 1 hour at room temperature. Following 3×PBST washes, the binding of the parental murine CEACAM1 antibody was detected with an anti-mouse-HRP and TMB substrate. The reaction was stopped with 3 M HCl, absorbance read at 450 nm on a Dynex Technologies MRX TC II plate reader and the binding curves plotted. The binding of the humanized CEACAM antibody variants to CEACAM1 was compared to the chimeric antibody (VHO/Vκ0), which was included on each plate.
molecule,measurement,setting,value
irrelevant IgG4 antibody,relative amount of cells bound,[1],1.02
same,relative amount of cells bound,[2],1.39
same,relative amount of cells bound,[3],0.37
"9B3_9E5/CP08E05 (antibody, IgG4, V domains shown, IgG4 (S241P), kappa) VH: EVQLLESGGGLVQPGGSLRLSCAASGFTFNAHAISWVRQAPGKGLEWVATISSGGTYTYYPDSVKGRFTISRDNSKNTLYLQMNSLKAEDTAMYYCARHGFDYDAAWFAYWGQGTLVTVSS VL: EIVLTQSPATLSLSPGERATLSCRANSAVSYMYWYQQKPGQAPRPWIYLTSNRATGVPARFSGSGSGTDYTLTISSLEPEDFAVYYCQQWTTNPPTFGQGTKLEIK",Kd,[4],67 nM
same,koff,[4],0.0078 s⁻¹
same,kon,[4],120000 M⁻¹ s⁻¹
same,relative KD to parent,[4],8.3
same,Kd,[5],61 nM
same,koff,[5],0.007 s⁻¹
same,kon,[5],110000 M⁻¹ s⁻¹
same,relative KD to parent,[5],7.8
same,binding result,[6],binds
"CP09C02/CP08E05 (antibody, IgG4, V domains shown, IgG4 (S241P), kappa) VH: EVQLLESGGGLVQPGGSLRLSCAASEFTFSDHAMSWVRQAPGKGLEWVATISSGGTYTYYPDSVKGRFTISRDNSKNTLYLQMNSLKAEDTAMYYCARHGFDYDAAWFAYWGQGTLVTVSS VL: EIVLTQSPATLSLSPGERATLSCRANSAVSYMYWYQQKPGQAPRPWIYLTSNRATGVPARFSGSGSGTDYTLTISSLEPEDFAVYYCQQWTTNPPTFGQGTKLEIK",Kd,[5],72 nM
same,koff,[5],0.007 s⁻¹
same,kon,[5],97000 M⁻¹ s⁻¹
same,relative KD to parent,[5],6.6
same,binding result,[6],binds
same,Kd,[7],78 nM
same,koff,[7],0.0075 s⁻¹
same,kon,[7],96000 M⁻¹ s⁻¹
same,relative KD to parent,[7],7.1
"VH3/Vκ5 (antibody, IgG4, V domains shown, IgG4 (S241P), kappa) VH: EVQLLESGGGLVQPGGSLRLSCAASGFIFSSHGMSWVRQAPGKGLEWVATISSGGTYTYYADSVKGRFTISRDNSKNTLYLQMNSLRAEDTAMYYCARHDFDYDAAWFAYWGQGTLVTVSS VL: EIVLTQSPATLSLSPGERATLSCRANSSVSYMAWYQQKPGQAPRLLIYLTSNRATGIPARFSGSGSGTDFTLTISSLEPEDFAVYYCQQWSSNPPTFGQGTKLEIK",binding result,[8],no binding (tested: 50 nM)
same,binding result,[9],no binding (tested: 100 µg/ml)

# From US20250074980A1 (BRIGHAM AND WOMEN S HOSPITAL, published 2025)
